Experimental data reported in patent US8026218 (UNIVERSITY OF ARIZONA, dated 2011).
Like-named read-outs stand apart in the source and are kept apart here. Square brackets hold non-standard residues; d marks the D form. Primed or numbered codes have the meaning given here. Ends that are not written are not given here. * marks the point of attachment. O‑Bzl(CF3)2 = C-terminal bis(trifluoromethyl)benzyl ester; NH(3,5-(CF3)2-benzyl) = FC(F)(F)c1cc(CN*)cc(C(F)(F)F)c1; OBzl(3,5-(CF3)2) = FC(F)(F)c1cc(CO*)cc(C(F)(F)F)c1; O‑Bzl(CF3)2″ = C-terminal Bzl(CF3)2 ester; Phe(4-Cl) = N[C@@H](Cc1ccc(Cl)cc1)C(=O)O; Phe(4-F) = N[C@@H](Cc1ccc(F)cc1)C(=O)O; Aib = CC(C)(N)C(=O)O

Experiments:
rat µ opioid receptor [1] = target: T1, rat µ opioid receptor (rat, UniProt P33535 1-398); assay: competition vs [3H]DAMGO, rMOR cell membranes
T1 construct: whole, on cells; membrane preparations of the transfected cells were used; also called rMOR; MOR

human δ opioid receptor [2] = target: T2, human δ opioid receptor (human, UniProt P41143 1-372); assay: cell-based or functional assay
T2 sequence (P41143 whole entry, stated change not applied): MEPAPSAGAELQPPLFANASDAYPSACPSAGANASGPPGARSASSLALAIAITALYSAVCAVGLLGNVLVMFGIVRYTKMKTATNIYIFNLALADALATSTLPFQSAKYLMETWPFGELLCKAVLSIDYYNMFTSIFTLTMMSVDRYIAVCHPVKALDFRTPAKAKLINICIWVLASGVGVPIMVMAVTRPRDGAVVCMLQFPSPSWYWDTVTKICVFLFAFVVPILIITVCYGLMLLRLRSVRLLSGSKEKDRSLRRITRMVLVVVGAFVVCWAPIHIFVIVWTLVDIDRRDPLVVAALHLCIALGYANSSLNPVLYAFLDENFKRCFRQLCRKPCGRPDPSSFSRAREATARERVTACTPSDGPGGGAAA

rat µ opioid receptor [3] = target: T1, rat µ opioid receptor; assay: cell-based or functional assay
rat NK1 receptor [4] = target: T3, rat NK1 receptor (rat, UniProt P14600 1-407); assay: competition vs [3H]Substance P, rNK1 CHO cell membranes
T3 construct: whole, on cells; membrane preparations of the transfected cells were used; also called rNK1; rNK-1
T3 sequence (P14600 whole entry): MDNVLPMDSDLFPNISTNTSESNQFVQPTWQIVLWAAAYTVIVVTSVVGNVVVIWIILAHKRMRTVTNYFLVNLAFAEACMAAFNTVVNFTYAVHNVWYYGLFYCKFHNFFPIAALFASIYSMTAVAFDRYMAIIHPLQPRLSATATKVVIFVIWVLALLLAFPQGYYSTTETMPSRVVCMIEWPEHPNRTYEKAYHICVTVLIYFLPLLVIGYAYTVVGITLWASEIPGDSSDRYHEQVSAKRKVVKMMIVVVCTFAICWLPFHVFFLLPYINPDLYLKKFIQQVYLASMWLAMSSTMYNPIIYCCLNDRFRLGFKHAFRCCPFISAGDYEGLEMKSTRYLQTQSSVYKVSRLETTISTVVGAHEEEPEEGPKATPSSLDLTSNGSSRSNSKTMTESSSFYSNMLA

human δ opioid receptor [5] = target: T2, human δ opioid receptor; assay: competition vs [3H]DPDPE, hDOR cell membranes
[6] = target: µ opioid receptor of the guinea pig isolated ileum (guinea pig, UniProt P97266 1-98); assay: cell-based or functional assay
Target sequence in this assay (P97266 whole entry): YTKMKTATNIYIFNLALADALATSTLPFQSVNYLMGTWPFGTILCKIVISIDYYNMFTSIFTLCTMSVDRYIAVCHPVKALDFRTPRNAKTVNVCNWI

guinea pig NK1 receptor = guinea pig NK1 receptor (guinea pig, UniProt P30547 1-407); assay: cell-based or functional assay
[7] = target: µ opioid receptor of the guinea pig isolated ileum (guinea pig, UniProt P97266 1-98); assay: cell-based or functional assay; remark: listed apart in the source
Target sequence in this assay (P97266 whole entry): as above

human NK1 receptor [8] = target: T4, human NK1 receptor (human, UniProt P25103 1-407); assay: competition vs [3H]Substance P, hNK1 CHO cell membranes
T4 construct: whole, on cells; membrane preparations of the transfected cells were used; also called hNK1; human neurokinin-1 receptor

human δ opioid receptor [9] = target: T2, human δ opioid receptor; assay: cell-based or functional assay; remark: listed apart in the source
rat µ opioid receptor [10] = target: T1, rat µ opioid receptor; assay: cell-based or functional assay; remark: listed apart in the source
rat µ opioid receptor [11] = target: T1, rat µ opioid receptor; assay: competition vs [3H]DAMGO, rMOR cell membranes; remark: listed apart in the source
human NK1 receptor [12] = target: T4, human NK1 receptor; assay: competition vs [3H]Substance P, hNK1 CHO cell membranes; remark: listed apart in the source
rat NK1 receptor [13] = target: T3, rat NK1 receptor; assay: competition vs [3H]Substance P, rNK1 CHO cell membranes; remark: listed apart in the source
human δ opioid receptor [14] = target: T2, human δ opioid receptor; assay: competition vs [3H]DPDPE, hDOR cell membranes; remark: listed apart in the source
human δ opioid receptor [15] = target: T5, human δ opioid receptor (human, UniProt P41143 1-372); assay: cell-based or functional assay; remark: listed apart in the source
T5 sequence (P41143 whole entry, stated change not applied): as the sequence (P41143 whole entry, stated change not applied) above

rat NK1 receptor [16] = target: T6, rat NK1 receptor (rat, UniProt P14600 1-407); assay: competition vs [3H]substance P, membranes of rNK1-transfected CHO cells
T6 construct: whole, on cells; Assayed as membrane preparations of transfected CHO cells; also called rNK1; rNK-1
T6 sequence (P14600 whole entry): as the sequence (P14600 whole entry) above

human δ opioid receptor [17] = target: T5, human δ opioid receptor; assay: competition vs [3H]DPDPE, membranes of hDOR-transfected HN9.10 cells

Chain of guinea pig NK1 receptor (P30547 whole entry): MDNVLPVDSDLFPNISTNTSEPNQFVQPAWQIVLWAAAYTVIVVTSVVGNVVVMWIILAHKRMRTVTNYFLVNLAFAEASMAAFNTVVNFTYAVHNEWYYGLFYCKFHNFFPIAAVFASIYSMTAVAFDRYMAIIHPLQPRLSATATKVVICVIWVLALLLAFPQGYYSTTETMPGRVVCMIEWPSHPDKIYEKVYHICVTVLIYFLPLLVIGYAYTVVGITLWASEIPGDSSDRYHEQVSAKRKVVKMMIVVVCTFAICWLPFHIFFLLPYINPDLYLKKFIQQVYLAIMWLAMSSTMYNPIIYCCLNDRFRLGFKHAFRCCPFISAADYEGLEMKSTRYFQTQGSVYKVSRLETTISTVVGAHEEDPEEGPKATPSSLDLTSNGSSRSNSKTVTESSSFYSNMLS
T4 sequence (P25103 whole entry): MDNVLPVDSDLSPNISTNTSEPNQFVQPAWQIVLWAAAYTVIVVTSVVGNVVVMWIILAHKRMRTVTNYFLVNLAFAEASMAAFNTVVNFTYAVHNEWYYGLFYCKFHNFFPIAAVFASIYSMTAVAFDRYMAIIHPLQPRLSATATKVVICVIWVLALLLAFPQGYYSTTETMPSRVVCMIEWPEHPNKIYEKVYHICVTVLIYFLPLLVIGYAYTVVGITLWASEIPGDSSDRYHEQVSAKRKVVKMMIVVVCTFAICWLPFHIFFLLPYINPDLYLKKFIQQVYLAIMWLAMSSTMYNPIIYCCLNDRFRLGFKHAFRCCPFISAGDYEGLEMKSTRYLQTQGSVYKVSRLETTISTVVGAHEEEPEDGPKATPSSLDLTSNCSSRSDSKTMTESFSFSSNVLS
T1 sequence (P33535 whole entry): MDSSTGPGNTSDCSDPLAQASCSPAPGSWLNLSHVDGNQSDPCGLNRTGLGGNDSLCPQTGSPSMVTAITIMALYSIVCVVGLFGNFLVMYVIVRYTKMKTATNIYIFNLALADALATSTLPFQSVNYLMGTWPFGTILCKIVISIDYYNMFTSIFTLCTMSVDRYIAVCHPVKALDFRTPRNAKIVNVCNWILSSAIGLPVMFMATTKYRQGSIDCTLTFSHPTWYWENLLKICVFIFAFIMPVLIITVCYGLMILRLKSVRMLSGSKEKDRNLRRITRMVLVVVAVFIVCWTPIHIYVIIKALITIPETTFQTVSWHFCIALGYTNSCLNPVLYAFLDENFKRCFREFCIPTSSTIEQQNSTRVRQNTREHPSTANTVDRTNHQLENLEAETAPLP

For Y[dA]GFLPLW-{OBzl(3,5-(CF3)2)} (also called TY004) [TyrDAlaGlyPheLeuProLeuTrpOBn(CF3)2], the Ki (rat µ opioid receptor [1]) was 23.3 nM, the “GTP binding EC50” value (human δ opioid receptor [2]) was 9.6 nM and the “GTP binding Emax” value (human δ opioid receptor [2]) was 42.5%. For the same binder, the “GTP binding Emax” value (rat µ opioid receptor [3]) was 44.5%, the IC50 (rat NK1 receptor [4]) was 20.9 nM and the Ki (human δ opioid receptor [5]) was 5 nM. For the same binder, the “GPI/LMMP IC50” value [6] was 341 nM and the “GPI/LMMP SP antagonist Ke” value (guinea pig NK1 receptor) was 19.4 nM.

Y[dA]GFGPLW-{OBzl(3,5-(CF3)2)} (also: TFA salt, also called TY006) [TyrDAlaGlyPheGlyProLeuTrpOBn(CF3)2] was tested, and the Ki (rat µ opioid receptor [1]) was 27 nM, the “GTP binding EC50” value (human δ opioid receptor [2]) was 50.2 nM and the “GTP binding Emax” value (human δ opioid receptor [2]) was 33.6%. The “GTP binding EC50” value (rat µ opioid receptor [3]) was 41.7 nM, the “GTP binding Emax” value (rat µ opioid receptor [3]) was 35.9% and the IC50 (rat NK1 receptor [4]) was 15.6 nM. The Ki (human δ opioid receptor [5]) was 36.1 nM, the “GPI/LMMP IC50” value [6] was 384 nM and the “GPI/LMMP SP antagonist Ke” value (guinea pig NK1 receptor) was 5.4 nM.

For Y[dA]GF[dF]PLW-{OBzl(3,5-(CF3)2)} (also called TY007) [TyrDAlaGlyPheDPheProLeuTrpOBn(CF3)2], the Ki (rat µ opioid receptor [1]) was 410 nM, the “GTP binding EC50” value (human δ opioid receptor [2]) was 16.7 nM and the “GTP binding Emax” value (human δ opioid receptor [2]) was 22.9%. For the same binder, the “GTP binding EC50” value (rat µ opioid receptor [3]) was 345 nM, the “GTP binding Emax” value (rat µ opioid receptor [3]) was 23.6% and the IC50 (rat NK1 receptor [4]) was 66.7 nM. The Ki (human δ opioid receptor [5]) was 110 nM, the “GPI/LMMP, inhibition at 1 mM” value [6] was 9% and the “GPI/LMMP SP antagonist Ke” value (guinea pig NK1 receptor) was 69.6 nM.

Y[dA]GFPW-{O‑Bzl(CF3)2} [Tyr-DAla-Gly-Phe-Pro-Trp-O-Bzl(CF3)2 (NP39)] was tested, and the “GPI/LMMP µ-agonist IC50” value [7] was 259 nM.

Binder Y[dA]G[Phe(4-Cl)]-{OBzl(3,5-(CF3)2)} (also called NP52) [Tyr-D-Ala-Gly-pClPhe-O-3′,5′(CF3)2-Bzl] has a Ki (human NK1 receptor [8]) of 8.04 nM.

Y[dA]GFMW-{O‑Bzl(CF3)2} [Tyr-DAla-Gly-Phe-Met-Trp-O-Bzl(CF3)2 (NP38)] was tested, and the “GPI/LMMP µ-agonist IC50” value [7] was 393 nM.

Work on Y[dA]G[Phe(4-F)]-{O‑3,5‑Bzl(CF3)2} (also called NP62) [Tyr-D-Ala-Gly-pFPhe-O-3′,5′(CF3)2-Bzl] yielded a Ki (human NK1 receptor [8]) of 0.2 nM.

Y[dA]GF[Aib]W-{O‑Bzl(CF3)2″} (also called NP41) [Tyr-DAla-Gly-Phe-Aib-Trp-O-Bzl(CF3)2] was tested, and the “GTP EMax” value (human δ opioid receptor [9]) was 65, the “GTP EMax” value (rat µ opioid receptor [10]) was 36 and the Ki (rat µ opioid receptor [11]) was 13.3 nM. The Ki (human NK1 receptor [12]) was 0.008 nM, the Ki (rat NK1 receptor [13]) was 3.4 nM and the Ki (human δ opioid receptor [14]) was 24.2 nM.

With Y[dA]GFLW-{O‑Bzl(CF3)2} [Tyr-DAla-Gly-Phe-Leu-Trp-O-Bzl(CF3)2 (NP37)] the “GPI/LMMP µ-agonist IC50” value [7] was 45.4 nM.

B1: Tyr-DAla-Gly-Phe-γ-Abu-Trp-O-Bzl(CF3)2 (peptide)
peptide: Y[dA]GFXW-{O‑Bzl(CF3)2}
modifications: not fully specified (residue 5); printed as Tyr-DAla-Gly-Phe-γ-Abu-Trp-O-Bzl(CF3)2
notes: also called NP34
B1 was tested, and the “GTP EMax” value (human δ opioid receptor [9]) was 40, the “GTP EMax” value (rat µ opioid receptor [10]) was 27 and the Ki (rat µ opioid receptor [11]) was 2.2 nM. For the same binder, the Ki (human NK1 receptor [12]) was 0.001 nM, the Ki (rat NK1 receptor [13]) was 7.4 nM and the Ki (human δ opioid receptor [14]) was 25.4 nM.

In the case of H-Y[dA]GFMPLW-{NH(3,5-(CF3)2-benzyl)} (also: TFA salt, TFA salt; also called TY027; TY27) [H-Tyr-D-Ala-Gly-Phe-Met-Pro-Leu-Trp-NH-3,5-Bzl(CF3)2], the “[35S]GTPγS binding EC50” value (human δ opioid receptor [15]) is reported as 8.6 nM, the “[35S]GTPγS binding Emax” value (human δ opioid receptor [15]) is reported as 58% and the “[35S]GTPγS binding LogEC50” value (human δ opioid receptor [15]) is reported as -8.1. For the same binder, the Ki (rat NK1 receptor [16]) was 7.3 nM, the LogIC50 (rat NK1 receptor [16]) was -7.6 and the LogIC50 (human δ opioid receptor [17]) was -8.8.
